From the nanobody polyreactivity screen of Harvey et al. (2022)

Assay: yeast display, Sf9 membrane polyspecificity reagent, FACS + sequencing; frameworks hold sequencing errors
Summary of the method: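 Galactose induction of a Saccharomyces cerevisiae BJ5465 synthetic nanobody display library ran 36–48 hours. The cells were then stained for 1 hour at 4 °C with 10% biotinylated, detergent-solubilized Sf9 membrane reagent, pulled down on streptavidin microbeads and FACS-sorted into low and high (top ~1%) gates on expression and reagent-binding fluorescence. Labels for polyreactivity follow the gate of origin.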

| Sequence | polyreactivity (PSR sort gate) |
| --- | --- |
| QVQLVESGGGLVQAGGSLRLSCAASGSIFNDYAMGWYRQAPGKERELVAAITSSDGRTFYADSVKGRFTISRDNAKNTVYLQMNSLKPEDTAVYYCAAEWTSRYSTYEYWGQGTQVTVSS | low polyreactivity |
| QVQLVESGGGLVQAGGSLRLSCAASGSIFNENPMGSYRQAPGKERELVAVITHRTGSTYYADSVKGRFTISRDNAKYTFYLQLTSLTPEDTAVYYCATRTRRNRYRGGEYDYWGQGTQVTVSS | low polyreactivity |
| QVQLVESGGGLVQAGGSLRLSCAASGSIFNGNAMGWYRQAPGKERELVARITSGSSTYYADSVKGRFTISRDNAKNTVYLQMNSLKPEDTAVYYCAAVYGRYISYRWRSLYDYWGQGTQVTVSS | high polyreactivity |
| QVQLVESGGGLVQAGGSLRLSCAASGSIFNGYDMGWYRQAPGKERELVAAISLSGDSTYYADSVKGRFTISRDYAKKTVYLQMNSLKPEDTAVYYCAAADYFRSYWGQGTQVTVSS | low polyreactivity |
| QVQLVESGGGLVQAGGSLRLSCAASGSIFNINAMGWYRQAPGKERELVAAISKRGGSTYYADSVKGRFTISRDNAKNTVYLQLNSLKPEDTAVYYCAADLTGVDYDYWGQGTQVTVSS | high polyreactivity |
| QVQLVESGGGLVQAGGSLRLSCAASGSIFNLYAMGWYRQAPGKERELVAAIRWSGGSTYYADSVKGRFTISRDNAKNTVYLKMKSMKPEDTAVYYCNAEWKSYRVPKFEYWGQGTQVTVSS | low polyreactivity |
| QVQLVESGGGLVQAGGSLRLSCAASGSIFNLYAMGWYRQAPGKERELVAGIRWSGGRTYYADSVKGRFTISRDNAKNTVYLQMNSLKPEDTAVYYCNAGGYLSWWNDYDYWGQGTQVTVSS | high polyreactivity |
| QVQLVESGGGLVQAGGSLRLSCAASGSIFNLYAMGWYRQAPGKERELVATITWSGGSTYYADSVKGRFTISRDNAKNTVYLQMNSLKPEDTAVYYCAATALEWYPAVYNQYYYWGQGTQVTVSS | low polyreactivity |
| QVQLVESGGGLVQAGGSLRLSCAASGSIFNPYVMGWYRQAPGKERELVAAISSSGGRTYYADSVKGRFTLSRDNAKNTVDFQMNSLKPEDTAVYYCAAKPRQGYDYWGQGTQVTVSS | high polyreactivity |
| QVQLVESGGGLVQAGGSLRLSCAASGSIFNRNAMGWYRQAPGKERELVATITRNGGRTYYADSVKGRFTISRDNAKNTVYLQMNSLKPEDTAVYYCNAVRQRLRPGNLFDLDYWGQGTQVTVSS | low polyreactivity |
| QVQLVESGGGLVQAGGSLRLSCAASGSIFNRYSMGWYRQEPGKERELVASIRGTGSTYYADSVKGRFTISRDNAKNTVYLQMNSLKPEDTAVDYCAARPGYLYSKYNYWGQGTQVTVSS | high polyreactivity |
| QVQLVESGGGLVQAGGSLRLSCAASGSIFNSYAMGWYRQAPGKERELVAAISSGGGRTYYAVSVKGRFKISRDNAKNTVYLQMNSLKPEDTAVYYCAKYYRAFIRDYNYWGQGTQVTVSS | high polyreactivity |
| QVQLVESGGGLVQAGGSLRLSCAASGSIFNTYAMGWYRQAPGKERELVAAITWSGGSTYYADSVKGRFTISRDNAKNTVYLQMNSLKPEDTAVYYCAARQRRQSYWGQGTQVTVSS | high polyreactivity |
| QVQLVESGGGLVQAGGSLRLSCAASGSIFNVYAMGWYRQAPGKERELVAAISDGDGSTFYADSVKGRFTISRDNAKNTVYLQMNSLKPEDTAVYYCAKDYRWDRKFDYWGQGTQVTVSS | low polyreactivity |
| QVQLVESGGGLVQAGGSLRLSCAASGSIFNYNAMGWYRPAPGKERELVAALNSGGSTNYADSVKGRFTISRDNAKNTVYLQMNSLKPEDPAVYYCAADNYSQGVPYDYWGQGTQVTVSS | low polyreactivity |
| QVQLVESGGGLVQAGGSLRLSCAASGSIFNYTMGWYRQGPAQERQLVAVISRSGGRTYYADSVKGRFTISRDNAKNTVYLQMNSLKPEDTAVYYCATDGHNGYYGRYDYWGHGTQVTVSS | high polyreactivity |
| QVQLVESGGGLVQAGGSLRLSCAASGSIFNYYAMGCYRQAPGKERELVAAIETTGGSTYYADSVKGRFTNSRDNAKNTVYLQMNSLKPEDTAVYYCAATWGKPWYYEYDYWGQGTQVTVSS | low polyreactivity |
| QVQLVESGGGLVQAGGSLRLSCAASGSIFNYYAMGWNRQAPVKETEFVADISGSGSSTYYADSVKGRFTISRDNAKNTVYLQMNSLKPEDTAVYYCIAEYYWGVGYYPYSDYGYWGQGTQVTVSS | low polyreactivity |
| QVQLVESGGGLVQAGGSLRLSCAASGSIFNYYAMGWYRQAPGKERELVAGITTSGGSTYYADSVKGRFTISRDNAKNTVYLQMNSLKPEDTAVYYWAAYDYISSTYFLDDYWGQGTQVTVSS | low polyreactivity |
| QVQLVESGGGLVQAGGSLRLSCAASGSIFNYYVMGWYRQAPGKERELVAGIRWNGGSTYYADSVKGRFTISRDNAKNTVYLQMNSLKPEDTAVYDCAAQAWWGYYSRGPMDYWGQGTQVTVSS | low polyreactivity |
| QVQLVESGGGLVQAGGSLRLSCAASGSIFPAIAKGWYRQAPGTERELVAAISVSGARTYYADSVKGRFTISRDNAKNTVYLQMNSLKPEDTAVYYCAARAAGSQHDYWGQGTQVTVSS | high polyreactivity |
| QVQLVESGGGLVQAGGSLRLSCAASGSIFPANAMGWYRQAPGKERELVAAINRDGITNYADSVKGRFTISRDNAKNTVYLQMNSLKPEDTAVYYCAAEFAWQWWEYGYWGQGTQVTVSS | low polyreactivity |

| Sequence | polyreactivity (PSR sort gate) |
| --- | --- |
| QVQLVESGGGLVQAGGSLRLSCAASGSIFPAYAMGWYRQAPGKERELVAASTDRGGSTSYADSVKGRFTISRDNAKNTVYLHKNSLKPEDT | low polyreactivity |
| QVQLVESGGGLVQAGGSLRLSCAASGSIFPAYAMGWYRQAPGKERELVASITGSGGSTYYADSVKGRFTISRDIAKNTVYLQMNSLKPEDTAVYYCNARYYVYSATVDRYYHFYYWGQGTQVTVSS | high polyreactivity |
| QVQLVESGGGLVQAGGSLRLSCAASGSIFPDYAMGRYRQAPGKERELVAGISSNSGSTYYADSVKGRFTISRDNAKNTVYLQMNSLKPEDTAVYYCAKDSFWRDTGYTDGDYWGQGTKVTVSS | low polyreactivity |
| QVQLVESGGGLVQAGGSLRLSCAASGSIFPDYDMGWYRQAPGKERELVAAISSSGDSTYYADSVKGRFTISRDIAKNTVYLQMNSLKPEDTAVYYCAVDGTRSTSNGSEFTGYNYWGQGTQVTVSS | low polyreactivity |
| QVQLVESGGGLVQAGGSLRLSCAASGSIFPDYTMGWYRQAPGKERELVAAITRSGDSTYYADSVKGRFTISRDNAKNTVYLQMNSLKPEDTAVYYCARDAFSVSDFSYASIEYDYWGQGTQVTVSS | low polyreactivity |
| QVQLVESGGGLVQAGGSLRLSCAASGSIFPEYAMGWYRQAPGKERELVASISSGGSSTYYADSVKGRFTISRDNAKNTVYLQMNSLKPEDTAVYYCARRRSYKRRFDYWGQGTQVTVSS | low polyreactivity |
| QVQLVESGGGLVQAGGSLRLSCAASGSIFPFYAMGWYRQAPGKERELVAAITRSDGSTYYADSVKGRFTISRDNAKNTVYLQMNSLKPEDTAVYYCADYGYWGQGTQVTVSS | low polyreactivity |
| QVQLVESGGGLVQAGGSLRLSCAASGSIFPGNAIGSYRQAPGKERELDARITVSGGTTYFADSVKGRFTISRDNAKNTVYLQMNSLKPEDTAVYYCAADGPSPFIQGYAKGDYWGQGTQVTVSW | low polyreactivity |
| QVQLVESGGGLVQAGGSLRLSCAASGSIFPGNAMGWSRQAPGKEREFVAAISWSGGSTYADSVKGRFTISRDNAKNTVYLQINSVKPEDTAVYYCAAVRRYLKAAYGYWGQGTKVTVSS | low polyreactivity |
| QVQLVESGGGLVQAGGSLRLSCAASGSIFPGNAMGWYRQAPGKERELVAAIRGGGSTNYADSVKGRFTISRDNAKNTVYLQMNSLKPEDTAVYYCNADPFTGYDYWGQGTQVTVSS | low polyreactivity |
| QVQLVESGGGLVQAGGSLRLSCAASGSIFPGNAMGWYRQAPGKERELVAVIDFSGASTYYADSVKGRFTISRDNAKNTVYLQMNSLKPEDTADYWGQGSQVTVSS | low polyreactivity |
| QVQLVESGGGLVQAGGSLRLSCAASGSIFPGNTMGWYRQAPGKERELVAGIDKNGGRTYYADSVKGRFTISRDNAKNTVYLQMNSLKPEDTAVYYCAADTWVFRRAFWTKYEYWGQGTQVTVSS | low polyreactivity |
| QVQLVESGGGLVQAGGSLRLSCAASGSIFPGYALGWYRQAPGKERELVATIRWSSGSRTNYADSVKGRFTISRENAKKTVYLQMNSLKPEDSAVYYCAAGSRRYKYDYWGQGTQVTVSS | high polyreactivity |
| QVQLVESGGGLVQAGGSLRLSCAASGSIFPGYAMGWSRQAPGKERELVAAISTSGGSTYADSVKGRFTISRDNAKNTVYLQMNSLKPEDTAVYYCAATYTYTSPVYYSLDGPWPYDYWGQGTQVTVSS | low polyreactivity |
| QVQLVESGGGLVQAGGSLRLSCAASGSIFPHYAMGWYREAPGKERELVAAISRGGSTNYADSVKGRFTISRDNAKNTVYLQMNSLKPEDTAVYYCNALRYYSRFQYAVAYRYDYWGQGTQVTVSS | high polyreactivity |
| QVQLVESGGGLVQAGGSLRLSCAASGSIFPIYAMGRYRQAPGKERELVAAIDSSGGSTYYADSVKGRFTISRDNAKNTVYLQMNSLKPEDTAVYYCAADFGSKSTPYDYWGQGTQVTVSS | low polyreactivity |
| QVQLVESGGGLVQAGGSLRLSCAASGSIFPIYAMGWDRQAPGKERELVASINISGGRTYYADSVKGRFTISRDNAKNTVYLQMNSLKPEDSAVYYCAAEWYTTSEYDYWGQGTQVTVSS | low polyreactivity |
| QVQLVESGGGLVQAGGSLRLSCAASGSIFPIYAMGWYRQATGKERELVAAINSGGGTNYADSVKGRFTISRDNAKNTVYLQMNSLKPEDTAVYYCAKSRYDYTKTEGGYWGQGTQVTVSS | low polyreactivity |
| QVQLVESGGGLVQAGGSLRLSCAASGSIFPKYAMGWYRQAPGKEREFVAAISRRGGSTYYAYSVKGRFTISRDNAKNTVYLQMNSLKPEDTAVYYCSVKIPTYPIFGRYGYWGQGTQVTVSS | high polyreactivity |
| QVQLVESGGGLVQAGGSLRLSCAASGSIFPKYAMGWYRQAPGKERELVATISYRGGRTYYADSVKGRFTISRDNAKNTVYLQMYSLKPEDTAVYYCATRYPYYPFYVGIYELDYWGQGTQVTVSS | low polyreactivity |
| QVQLVESGGGLVQAGGSLRLSCAASGSIFPLYAMGWYRQAPGKERELVAAITSNGGRTYYADSVKGRFTISRDNAKNTVYLQMNSLKPEDTAVYYCNKYLLDYRRGRSDYWGQGTQVTVSS | low polyreactivity |
